Earlier results in publication PMC2488365.

Target: penton base (Human adenovirus 2) (UniProt P03276)
UniProt P03276, sequence (P03276 whole entry): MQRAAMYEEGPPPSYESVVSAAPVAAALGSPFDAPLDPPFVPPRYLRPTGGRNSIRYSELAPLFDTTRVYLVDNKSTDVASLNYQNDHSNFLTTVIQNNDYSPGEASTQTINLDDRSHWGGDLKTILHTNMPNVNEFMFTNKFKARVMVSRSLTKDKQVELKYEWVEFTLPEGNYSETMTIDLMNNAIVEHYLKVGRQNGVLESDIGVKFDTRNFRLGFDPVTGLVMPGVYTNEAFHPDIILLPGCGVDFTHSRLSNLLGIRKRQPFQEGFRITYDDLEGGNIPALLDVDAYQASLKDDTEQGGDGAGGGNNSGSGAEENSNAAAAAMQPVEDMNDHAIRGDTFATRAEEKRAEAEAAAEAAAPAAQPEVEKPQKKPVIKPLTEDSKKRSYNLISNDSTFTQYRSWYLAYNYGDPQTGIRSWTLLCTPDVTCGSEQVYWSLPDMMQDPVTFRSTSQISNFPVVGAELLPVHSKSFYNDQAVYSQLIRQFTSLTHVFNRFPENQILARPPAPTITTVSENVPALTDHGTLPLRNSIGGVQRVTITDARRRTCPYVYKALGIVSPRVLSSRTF

fiber (from UniProt P03275)
Kd: 200 nM
